# Assay results: patent US20100260668A1 (published 2010)
# Columns and labels:
# [1] = biological target: T1, human DLL4 on 293G-human DLL4 cells (human, UniProt Q9NR61 27-685); test: FACS: inhibition of Notch1 binding to 293G-human DLL4 cells (competitor Notch1)
# T1 construct: whole, on cells; no method paragraph describes this FACS assay
# [2] = biological target: T2, human DLL4 extracellular domain (human, UniProt Q9NR61 27-529, biotin label in the Notch-1 competition ELISA (sites not given)); test: competition ELISA: 14 nM biotin-labelled human DLL4 ECD pre-mixed with DVD-Ig, then on coated human Notch-1 (competitor Notch-1)
# T2 construct: extracellular domain; also called biotin labeled human DLL4 extracellular domain
# [3] = biological target: T2, human DLL4 extracellular domain; test: cell-based or functional assay
# [4] = biological target: T3, DLL4 ECD/His tag (R&D 1506-D4-050) (UniProt Q9NR61 27-529); test: direct bind ELISA, DLL4 on plate; DLL4 VD C-term.; HC Long, LC Short
# T3 construct: extracellular domain; Bought antigen coated on the ELISA plate; not shown: His tag
# [5] = biological target: T3, DLL4 ECD/His tag (R&D 1506-D4-050); test: direct bind ELISA, DLL4 on plate; DLL4 VD C-term.; HC Long, LC Long
Binder,EC50 [4] [nM],EC50 [5] [nM],further results
"DVD485 (DLL4 (seq. 1) N-terminal / VEGF (AB071) C-terminal DVD-Ig, short HC linker, long LC linker) (bispecific antibody, human IgG1, kappa, also called DVD485H/DVD485L) heavy: not shown light: DIQMTQSPSSLSASVGDRVTITCRASQDVSTAVAWYQQKPGKAPKLLIYSASFLYSGVPSRFSGSGSGTDFTLTISSLQPEDFATTYYCQQSYTGTVTFGQGTKVEIKRTVAAPSVFIFPPDIQMTQSPSSLSASVGDRVTITCRASQVIRRSLAWYQQKPGKAPKLLIYAASNLASGVPSRFSGSGSGTDFTLTISSLQPEDFATYYCQQSNTSPLTFGQGTKVEIKRTVAAPSVFIFPPSDEQLKSGTASVVCLLNNFYPREAKVQWKVDNALQSGNSQESVTEQDSKDSTYSLSSTLTLSKADYEKHKVYACEVTHQGLSSPVTKSFNRGEC",–,–,"IC50 [1]: 6.3 nM; IC50 [2]: 3.44 nM; DVD-Ig Inhibition of sFlt1 (IC50, nM) [3]: 6.67 nM"
"DVD500 (bispecific antibody, human IgG1, kappa, DVD-Ig; HC long, LC short linker; also called DVD500H; DVD500L) heavy: not shown light: DIQMTQSPSSLSASVGDRVTITCSASQDISNYLNWYQQKPGKAPKVLIYFTSSLHSGVPSRFSGSGSGTDFTLTISSLQPEDFATYYCQQYSTVPWTFGQGTKVEIKRTVAAPDIQMTQSSSYLSVSLGGRVTITCKASDHINNWLAWYQQKPGNAPRLLISGATSLETGVPSRFSGSGSGKDYTLSITSLQTEDVATYYCQQYWSIPLTFGAGTKLELKRTVAAPSVFIFPPSDEQLKSGTASVVCLLNNFYPREAKVQWKVDNALQSGNSQESVTEQDSKDSTYSLSSTLTLSKADYEKHKVYACEVTHQGLSSPVTKSFNRGEC",0.57,–,–
"DVD458 (bispecific antibody, human IgG1, kappa, L234A L235A, DVD-Ig; outer AB071 (VEGF), inner AB069 (DLL4); HC long, LC short linker; also called DVD458H; DVD458L) heavy: not shown light: DIQMTQSPSSLSASVGDRVTITCRASQVIRRSLAWYQQKPGKAPKLLIYAASNLASGVPSRFSGSGSGTDFTLTISSLQPEDFATYYCQQSNTSPLTFGQGTKVEIKRTVAAPDIVMTQSPDSLAVSLGERATISCRASESVDNYGISFMKWFQQKPGQPPKLLIYAASNQGSGVPDRFSGSGSGTDFTLTISSLQAEDVAVYYCQQSKEVPWTFGGGTKVEIKRTVAAPSVFIFPPSDEQLKSGTASVVCLLNNFYPREAKVQWKVDNALQSGNSQESVTEQDSKDSTYSLSSTLTLSKADYEKHKVYACEVTHQGLSSPVTKSFNRGEC",1.54,–,–
"DVD498 (bispecific antibody, human IgG1, kappa, DVD-Ig; outer AB071 (VEGF), inner AB072 (DLL4); HC long, LC long linker; also called DVD498H; DVD498L) heavy: not shown light: DIQMTQSPSSLSASVGDRVTITCRASQVIRRSLAWYQQKPGKAPKLLIYAASNLASGVPSRFSGSGSGTDFTLTISSLQPEDFATYYCQQSNTSPLTFGQGTKVEIKRTVAAPSVFIFPPDIQMTQSSSYLSVSLGGRVTITCKASDHINNWLAWYQQKPGNAPRLLISGATSLETGVPSRFSGSGSGKDYTLSITSLQTEDVATYYCQQYWSIPLTFGAGTKLELKRTVAAPSVFIFPPSDEQLKSGTASVVCLLNNFYPREAKVQWKVDNALQSGNSQESVTEQDSKDSTYSLSSTLTLSKADYEKHKVYACEVTHQGLSSPVTKSFNRGEC",–,0.45,–
"DVD518 (bispecific antibody, human IgG1, kappa, lambda, DVD-Ig; HC long, LC long linker; also called DVD518H; DVD518L) heavy: not shown light: DIQMTQSPSSLSASVGDRVTITCSASQDISNYLNWYQQKPGKAPKVLIYFTSSLHSGVPSRFSGSGSGTDFTLTISSLQPEDFATYYCQQYSTVPWTFGQGTKVEIKRTVAAPSVFIFPPQAVVTQESALTTSPGETVTLTCRSSTGAVTTSNYANWVQEKPDHLFTGLIGGTNNRAPGVPARFSGSLIGDKAALTITGAQTEDEAIYFCALWYSNHWVFGGGTKLTVLGQPKAAPSVTLFPPSSEELQANKATLVCLISDFYPGAVTVAWKADSSPVKAGVETTTPSKQSNNKYAASSYLSLTPEQWKSHRSYSCQVTHEGSTVEKTVAPTECS",–,5.9,–
"DVD522 (bispecific antibody, human IgG1, kappa, lambda, L234A L235A, DVD-Ig; outer AB071 (VEGF), inner AB073 (DLL4); HC long, LC long linker; also called DVD522H; DVD522L) heavy: not shown light: DIQMTQSPSSLSASVGDRVTITCRASQVIRRSLAWYQQKPGKAPKLLIYAASNLASGVPSRFSGSGSGTDFTLTISSLQPEDFATYYCQQSNTSPLTFGQGTKVEIKRTVAAPSVFIFPPQAVVTQESALTTSPGETVTLTCRSSTGAVTTSNYANWVQEKPDHLFTGLIGGTNNRAPGVPARFSGSLIGDKAALTITGAQTEDEAIYFCALWYSNHWVFGGGTKLTVLGQPKAAPSVTLFPPSSEELQANKATLVCLISDFYPGAVTVAWKADSSPVKAGVETTTPSKQSNNKYAASSYLSLTPEQWKSHRSYSCQVTHEGSTVEKTVAPTECS",–,0.48,–
"DVD486 (VEGF (AB071) N-terminal / DLL4 (seq. 1) C-terminal DVD-Ig, short HC linker, long LC linker) (bispecific antibody, human IgG1, kappa, also called DVD486H/DVD486L) heavy: not shown light: DIQMTQSPSSLSASVGDRVTITCRASQVIRRSLAWYQQKPGKAPKLLIYAASNLASGVPSRFSGSGSGTDFTLTISSLQPEDFATYYCQQSNTSPLTFGQGTKVEIKRTVAAPSVFIFPPDIQMTQSPSSLSASVGDRVTITCRASQDVSTAVAWYQQKPGKAPKLLIYSASFLYSGVPSRFSGSGSGTDFTLTISSLQPEDFATTYYCQQSYTGTVTFGQGTKVEIKRTVAAPSVFIFPPSDEQLKSGTASVVCLLNNFYPREAKVQWKVDNALQSGNSQESVTEQDSKDSTYSLSSTLTLSKADYEKHKVYACEVTHQGLSSPVTKSFNRGEC",–,–,"IC50 [1]: 10.2 nM; IC50 [2]: 2.91 nM; DVD-Ig Inhibition of sFlt1 (IC50, nM) [3]: 0.7 nM"
"DVD474 (bispecific antibody, human IgG1, kappa, DVD-Ig; outer AB071 (VEGF), inner AB015 (DLL4); HC long, LC long linker; also called DVD474H; DVD474L) heavy: not shown light: DIQMTQSPSSLSASVGDRVTITCRASQVIRRSLAWYQQKPGKAPKLLIYAASNLASGVPSRFSGSGSGTDFTLTISSLQPEDFATYYCQQSNTSPLTFGQGTKVEIKRTVAAPSVFIFPPDIQMTQSPSSLSASVGDRVTITCRASQDVSTAVAWYQQKPGKAPKLLIYSASFLYSGVPSRFSGSGSGTDFTLTISSLQPEDFATTYYCQQSYTGTVTFGQGTKVEIKRTVAAPSVFIFPPSDEQLKSGTASVVCLLNNFYPREAKVQWKVDNALQSGNSQESVTEQDSKDSTYSLSSTLTLSKADYEKHKVYACEVTHQGLSSPVTKSFNRGEC",–,0.57,–
"DVD524 (bispecific antibody, human IgG1, lambda, DVD-Ig; HC long, LC short linker; also called DVD524H; DVD524L) heavy: not shown light: DIQMTQSPSSLSASVGDRVTITCSASQDISNYLNWYQQKPGKAPKVLIYFTSSLHSGVPSRFSGSGSGTDFTLTISSLQPEDFATYYCQQYSTVPWTFGQGTKVEIKRTVAAPQAVVTQESALTTSPGETVTLTCRSSTGAVTTSNYANWVQEKPDHLFTGLIGGTNNRAPGVPARFSGSLIGDKAALTITGAQTEDEAIYFCALWYSNHWVFGGGTKLTVLGQPKAAPSVTLFPPSSEELQANKATLVCLISDFYPGAVTVAWKADSSPVKAGVETTTPSKQSNNKYAASSYLSLTPEQWKSHRSYSCQVTHEGSTVEKTVAPTECS",0.22,–,–
"DVD476 (bispecific antibody, human IgG1, kappa, DVD-Ig; HC long, LC short linker; also called DVD476H; DVD476L) heavy: not shown light: DIQMTQSPSSLSASVGDRVTITCSASQDISNYLNWYQQKPGKAPKVLIYFTSSLHSGVPSRFSGSGSGTDFTLTISSLQPEDFATYYCQQYSTVPWTFGQGTKVEIKRTVAAPDIQMTQSPSSLSASVGDRVTITCRASQDVSTAVAWYQQKPGKAPKLLIYSASFLYSGVPSRFSGSGSGTDFTLTISSLQPEDFATTYYCQQSYTGTVTFGQGTKVEIKRTVAAPSVFIFPPSDEQLKSGTASVVCLLNNFYPREAKVQWKVDNALQSGNSQESVTEQDSKDSTYSLSSTLTLSKADYEKHKVYACEVTHQGLSSPVTKSFNRGEC",0.3,–,–
"DVD480 (bispecific antibody, human IgG1, kappa, DVD-Ig; outer AB071 (VEGF), inner AB015 (DLL4); HC long, LC short linker; also called DVD480H; DVD480L) heavy: not shown light: DIQMTQSPSSLSASVGDRVTITCRASQVIRRSLAWYQQKPGKAPKLLIYAASNLASGVPSRFSGSGSGTDFTLTISSLQPEDFATYYCQQSNTSPLTFGQGTKVEIKRTVAAPDIQMTQSPSSLSASVGDRVTITCRASQDVSTAVAWYQQKPGKAPKLLIYSASFLYSGVPSRFSGSGSGTDFTLTISSLQPEDFATTYYCQQSYTGTVTFGQGTKVEIKRTVAAPSVFIFPPSDEQLKSGTASVVCLLNNFYPREAKVQWKVDNALQSGNSQESVTEQDSKDSTYSLSSTLTLSKADYEKHKVYACEVTHQGLSSPVTKSFNRGEC",0.6,–,–
"DVD494 (bispecific antibody, human IgG1, kappa, DVD-Ig; HC long, LC long linker; also called DVD494H; DVD494L) heavy: not shown light: DIQMTQSPSSLSASVGDRVTITCSASQDISNYLNWYQQKPGKAPKVLIYFTSSLHSGVPSRFSGSGSGTDFTLTISSLQPEDFATYYCQQYSTVPWTFGQGTKVEIKRTVAAPSVFIFPPDIQMTQSSSYLSVSLGGRVTITCKASDHINNWLAWYQQKPGNAPRLLISGATSLETGVPSRFSGSGSGKDYTLSITSLQTEDVATYYCQQYWSIPLTFGAGTKLELKRTVAAPSVFIFPPSDEQLKSGTASVVCLLNNFYPREAKVQWKVDNALQSGNSQESVTEQDSKDSTYSLSSTLTLSKADYEKHKVYACEVTHQGLSSPVTKSFNRGEC",–,39.5,–
"DVD470 (bispecific antibody, human IgG1, kappa, DVD-Ig; HC long, LC long linker; also called DVD470H; DVD470L) heavy: not shown light: DIQMTQSPSSLSASVGDRVTITCSASQDISNYLNWYQQKPGKAPKVLIYFTSSLHSGVPSRFSGSGSGTDFTLTISSLQPEDFATYYCQQYSTVPWTFGQGTKVEIKRTVAAPSVFIFPPDIQMTQSPSSLSASVGDRVTITCRASQDVSTAVAWYQQKPGKAPKLLIYSASFLYSGVPSRFSGSGSGTDFTLTISSLQPEDFATTYYCQQSYTGTVTFGQGTKVEIKRTVAAPSVFIFPPSDEQLKSGTASVVCLLNNFYPREAKVQWKVDNALQSGNSQESVTEQDSKDSTYSLSSTLTLSKADYEKHKVYACEVTHQGLSSPVTKSFNRGEC",–,0.19,–
"DVD528 (bispecific antibody, human IgG1, lambda, DVD-Ig; outer AB071 (VEGF), inner AB073 (DLL4); HC long, LC short linker; also called DVD528H; DVD528L) heavy: not shown light: DIQMTQSPSSLSASVGDRVTITCRASQVIRRSLAWYQQKPGKAPKLLIYAASNLASGVPSRFSGSGSGTDFTLTISSLQPEDFATYYCQQSNTSPLTFGQGTKVEIKRTVAAPQAVVTQESALTTSPGETVTLTCRSSTGAVTTSNYANWVQEKPDHLFTGLIGGTNNRAPGVPARFSGSLIGDKAALTITGAQTEDEAIYFCALWYSNHWVFGGGTKLTVLGQPKAAPSVTLFPPSSEELQANKATLVCLISDFYPGAVTVAWKADSSPVKAGVETTTPSKQSNNKYAASSYLSLTPEQWKSHRSYSCQVTHEGSTVEKTVAPTECS",0.81,–,–
"DVD452 (bispecific antibody, human IgG1, kappa, L234A L235A, DVD-Ig; outer AB071 (VEGF), inner AB069 (DLL4); HC long, LC long linker; also called DVD452H; DVD452L) heavy: not shown light: DIQMTQSPSSLSASVGDRVTITCRASQVIRRSLAWYQQKPGKAPKLLIYAASNLASGVPSRFSGSGSGTDFTLTISSLQPEDFATYYCQQSNTSPLTFGQGTKVEIKRTVAAPSVFIFPPDIVMTQSPDSLAVSLGERATISCRASESVDNYGISFMKWFQQKPGQPPKLLIYAASNQGSGVPDRFSGSGSGTDFTLTISSLQAEDVAVYYCQQSKEVPWTFGGGTKVEIKRTVAAPSVFIFPPSDEQLKSGTASVVCLLNNFYPREAKVQWKVDNALQSGNSQESVTEQDSKDSTYSLSSTLTLSKADYEKHKVYACEVTHQGLSSPVTKSFNRGEC",–,0.34,–
